Data reported in PMC8096241.
Numbering of substitutions follows the chain as printed.

What was measured:
CapR = target: T1, CapR (Vibrio cholerae phage satellite PLE1, UniProt M1R2X8 1-139); assay: EMSA
T1 sequence: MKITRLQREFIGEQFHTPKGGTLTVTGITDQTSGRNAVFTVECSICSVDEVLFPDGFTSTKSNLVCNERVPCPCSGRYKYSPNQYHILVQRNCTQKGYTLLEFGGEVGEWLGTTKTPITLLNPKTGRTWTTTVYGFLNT

[1] = target: T2, CapR C43/46/72/74S (4xmut) (Vibrio cholerae phage satellite PLE1, UniProt M1R2X8 1-139, C43S;C46S;C72S;C74S); assay: EMSA
T2 sequence: T1 sequence with C43S, C46S, C72S, C74S

B1: probe F (dsDNA)
DNA 1: AATAATCGTTCGCAACAACAAATATTACAAT
DNA 2: ATTGTAATATTTGTTGTTGCGAACGATTATT
binding result (CapR): binds

B2: probe D (dsDNA)
DNA 1: AATAATCGTTCGCAACAACAAATATTACAATTATTAATGCAAACGACATATTTATTTAAATTA
DNA 2: TAATTTAAATAAATATGTCGTTTGCATTAATAATTGTAATATTTGTTGTTGCGAACGATTATT
binding result [1]: no binding | binding result (CapR): binds
